Reference: paper PMC6488228 (Nature microbiology, 2018)

What was measured:
[1] = target: VgrG1 (from pRSFDuet-1::vgrG1::eagT6) (Pseudomonas aeruginosa); test: cryo-EM structure
[2] = target: Tse6 (full-length, C-terminal His8 tag) (Pseudomonas aeruginosa, UniProt Q9I739 1-430); test: cryo-EM structure
Tse6 (full-length, C-terminal His8 tag), sequence (Q9I739 whole entry): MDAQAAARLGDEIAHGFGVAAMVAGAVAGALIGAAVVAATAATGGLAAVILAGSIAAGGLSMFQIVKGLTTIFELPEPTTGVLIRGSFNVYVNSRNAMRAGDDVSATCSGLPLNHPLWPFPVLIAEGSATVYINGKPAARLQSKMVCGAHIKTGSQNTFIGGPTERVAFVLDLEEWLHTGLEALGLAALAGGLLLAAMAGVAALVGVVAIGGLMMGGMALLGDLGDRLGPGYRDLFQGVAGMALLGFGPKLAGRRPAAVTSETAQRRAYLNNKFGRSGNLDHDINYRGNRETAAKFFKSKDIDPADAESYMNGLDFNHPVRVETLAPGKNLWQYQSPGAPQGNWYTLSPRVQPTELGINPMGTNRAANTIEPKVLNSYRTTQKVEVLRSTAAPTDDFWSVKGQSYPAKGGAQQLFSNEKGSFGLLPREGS

| Molecule | stoichiometry N [1] | binding result [2] |
| --- | --- | --- |
| VgrG1 (from pRSFDuet-1::vgrG1::eagT6) (natural protein) | 3 | – |
| EagT6 (from pRSFDuet-1::vgrG1::eagT6) (natural protein) MTLYRLHEADLEIPDAWQDQSINIFKLPASGPAREASFVISRDASQGDAPFADYVARQLENAEKQLPGFKLHKRWDINIHGHAAVLLDYQWQREGRDLMLRQVFIERRPAVLITTLTTTPADLPHHEPAWKQAMQTLVPRPTPS | – | binds |
